# Experimental data as given in the supplement of paper PMC11246515.
# ± gives the standard deviation of the averaged measurements.
# Assay: total protein half-life in vivo (active degradation + dilution); higher = more stable protein
# [1] = E. coli NCM3722 delta-clpP delta-lon delta-hslV, growth: N-lim chemostat, doubling time 6 h
# [2] = E. coli NCM3722 delta-clpP, growth: N-lim chemostat, doubling time 6 h
# [3] = E. coli NCM3722 delta-hslV, growth: N-lim chemostat, doubling time 6 h
# [4] = E. coli NCM3722 delta-lon, growth: N-lim chemostat, doubling time 6 h
# [5] = E. coli NCM3722 delta-smpB, growth: N-lim chemostat, doubling time 6 h
# [6] = wild type E. coli NCM3722, growth: C-lim chemostat, doubling time 12 h
# [7] = wild type E. coli NCM3722, growth: N-lim chemostat, doubling time 6 h
# [8] = wild type E. coli NCM3722, growth: N-lim chemostat, doubling time 12 h
# [9] = wild type E. coli NCM3722, growth: P-lim chemostat, doubling time 6 h
# [10] = wild type E. coli NCM3722, growth: P-lim chemostat, doubling time 12 h
# [11] = wild type E. coli NCM3722, growth: C-lim chemostat, doubling time 3 h
# [12] = wild type E. coli NCM3722, growth: C-lim chemostat, doubling time 6 h
Sequence,total protein half-life in vivo [1] [h],total protein half-life in vivo [2] [h],total protein half-life in vivo [3] [h],total protein half-life in vivo [4] [h],total protein half-life in vivo [5] [h],total protein half-life in vivo [6] [h],total protein half-life in vivo [7] [h],total protein half-life in vivo [8] [h],total protein half-life in vivo [9] [h],total protein half-life in vivo [10] [h],total protein half-life in vivo [11] [h],total protein half-life in vivo [12] [h]
MRIGIPRERLTNETRVAATPKTVEQLLKLGFTVAVESGAGQLASFDDKAFVQAGAEIVEGNSVWQSEIILKVNAPLDDEIALLNPGTTLVSFIWPAQNPELMQKLAERNVTVMAMDSVPRISRAQSLDALSSMANIAGYRAIVEAAHEFGRFFTGQITAAGKVPPAKVMVIGAGVAGLAAIGAANSLGAIVRAFDTRPEVKEQVQSMGAEFLELDFKEEAGSGDGYAKVMSDAFIKAEMELFAAQAKEVDIIVTTALIPGKPAPKLITREMVDSMKAGSVIVDLAAQNGGNCEYTVPGEIFTTENGVKVIGYTDLPGRLPTQSSQLYGTNLVNLLKLLCKEKDGNITVDFDDVVIRGVTVIRAGEITWPAPPIQVSAQPQAAQKAAPEVKTEEKCTCSPWRKYALMALAIILFGWMASVAPKEFLGHFTVFALACVVGYYVVWNVSHALHTPLMSVTNAISGIIVVGALLQIGQGGWVSFLSFIAVLIASINIFGGFTVTQRMLKMFRKN,6.21 ± 0.11,6.81 ± 0.17,6.66 ± 0.067,6.58 ± 0.37,6.01 ± 0.82,14.5 ± 0.55,6.23 ± 0.47,12.6 ± 0.42,6.73 ± 0.34,11.6 ± 1.5,–,–
MTTLKLDTLSDRIKAHKNALVHIVKPPVCTERAQHYTEMYQQHLDKPIPVRRALALAHHLANRTIWIKHDELIIGNQASEVRAAPIFPEYTVSWIEKEIDDLADRPGAGFAVSEENKRVLHEVCPWWRGQTVQDRCYGMFTDEQKGLLATGIIKAEGNMTSGDAHLAVNFPLLLEKGLDGLREEVAERRSRINLTVLEDLHGEQFLKAIDIVLVAVSEHIERFAALAREMAATETRESRRDELLAMAENCDLIAHQPPQTFWQALQLCYFIQLILQIESNGHSVSFGRMDQYLYPYYRRDVELNQTLDREHAIEMLHSCWLKLLEVNKIRSGSHSKASAGSPLYQNVTIGGQNLVDGQPMDAVNPLSYAILESCGRLRSTQPNLSVRYHAGMSNDFLDACVQVIRCGFGMPAFNNDEIVIPEFIKLGIEPQDAYDYAAIGCIETAVGGKWGYRCTGMSFINFARVMLAALEGGHDATSGKVFLPQEKALSAGNFNNFDEVMDAWDTQIRYYTRKSIEIEYVVDTMLEENVHDILCSALVDDCIERAKSIKQGGAKYDWVSGLQVGIANLGNSLAAVKKLVFEQGAIGQQQLAAALADDFDGLTHEQLRQRLINGAPKYGNDDDTVDTLLARAYQTYIDELKQYHNPRYGRGPVGGNYYAGTSSISANVPFGAQTMATPDGRKAHTPLAEGASPASGTDHLGPTAVIGSVGKLPTAAILGGVLLNQKLNPATLENESDKQKLMILLRTFFEVHKGWHIQYNIVSRETLLDAKKHPDQYRDLVVRVAGYSAFFTALSPDAQDDIIARTEHML,4.17,–,–,–,–,–,–,–,–,–,–,–
MTEPLKPRIDFDGPLEVDQNPKFRAQQTFDENQAQNFAPATLDEAQEEEGQVEAVMDAALRPKRSLWRKMVMGGLALFGASVVGQGVQWTMNAWQTQDWVALGGCAAGALIIGAGVGSVVTEWRRLWRLRQRAHERDEARDLLHSHGTGKGRAFCEKLAQQAGIDQSHPALQRWYASIHETQNDREVVSLYAHLVQPVLDAQARREISRSAAESTLMIAVSPLALVDMAFIAWRNLRLINRIATLYGIELGYYSRLRLFKLVLLNIAFAGASELVREVGMDWMSQDLAARLSTRAAQGIGAGLLTARLGIKAMELCRPLPWIDDDKPRLGDFRRQLIGQVKETLQKGKTPSEK [P0A8R7],5.42 ± 0.51,5.1 ± 0.24,4.51 ± 0.62,4.85 ± 0.12,4.83 ± 0.29,11.2 ± 0.13,5.23 ± 0.17,8.5 ± 0.23,5.02 ± 0.48,8.52 ± 0.38,2.96 ± 0.27,4.75 ± 0.28
MNYQNDDLRIKEIKELLPPVALLEKFPATENAANTVAHARKAIHKILKGNDDRLLVVIGPCSIHDPVAAKEYATRLLALREELKDELEIVMRVYFEKPRTTVGWKGLINDPHMDNSFQINDGLRIARKLLLDINDSGLPAAGEFLDMITPQYLADLMSWGAIGARTTESQVHRELASGLSCPVGFKNGTDGTIKVAIDAINAAGAPHCFLSVTKWGHSAIVNTSGNGDCHIILRGGKEPNYSAKHVAEVKEGLNKAGLPAQVMIDFSHANSSKQFKKQMDVCADVCQQIAGGEKAIIGVMVESHLVEGNQSLESGEPLAYGKSITDACIGWEDTDALLRQLANAVKARRG [P0AB91],3.65 ± 0.43,2.92 ± 0.049,2.76 ± 0.068,3.62 ± 0.64,3.01 ± 0.16,10.3 ± 0.25,3.02 ± 0.048,3.98 ± 0.2,5.41 ± 0.039,10.3 ± 0.3,3.18 ± 0.28,5.81 ± 0.16
MFTKRHRITLLFNANKAYDRQVVEGVGEYLQASQSEWDIFIEEDFRARIDKIKDWLGDGVIADFDDKQIEQALADVDVPIVGVGGSYHLAESYPPVHYIATDNYALVESAFLHLKEKGVNRFAFYGLPESSGKRWATEREYAFRQLVAEEKYRGVVYQGLETAPENWQHAQNRLADWLQTLPPQTGIIAVTDARARHILQVCEHLHIPVPEKLCVIGIDNEELTRYLSRVALSSVAQGARQMGYQAAKLLHRLLDKEEMPLQRILVPPVRVIERRSTDYRSLTDPAVIQAMHYIRNHACKGIKVDQVLDAVGISRSNLEKRFKEEVGETIHAMIHAEKLEKARSLLISTTLSINEISQMCGYPSLQYFYSVFKKAYDTTPKEYRDVNSEVML [P0ACI3],5.66 ± 0.54,5.86 ± 0.86,–,3.81 ± 0.22,3.05 ± 0.42,9.26 ± 0.14,3.78 ± 0.56,4.44 ± 1.1,5.4 ± 0.33,9.78 ± 0.94,2.89 ± 0.14,5.27 ± 0.069
MNTALAQQIANEGGVEAWMIAQQHKSLLRFLTCGSVDDGKSTLIGRLLHDTRQIYEDQLSSLHNDSKRHGTQGEKLDLALLVDGLQAEREQGITIDVAYRYFSTEKRKFIIADTPGHEQYTRNMATGASTCELAILLIDARKGVLDQTRRHSFISTLLGIKHLVVAINKMDLVDYSEETFTRIREDYLTFAGQLPGNLDIRFVPLSALEGDNVASQSESMPWYSGPTLLEVLETVEIQRVVDAQPMRFPVQYVNRPNLDFRGYAGTLASGRVEVGQRVKVLPSGVESNVARIVTFDGDREEAFAGEAITLVLTDEIDISRGDLLLAADEALPAVQSASVDVVWMAEQPLSPGQSYDIKIAGKKTRARVDGIRYQVDINNLTQREVENLPLNGIGLVDLTFDEPLVLDRYQQNPVTGGLIFIDRLSNVTVGAGMVHEPVSQATAAPSEFSAFELELNALVRRHFPHWGARDLLGDK,4.99 ± 0.27,4.67 ± 0.42,1.18 ± 0.2,1.23 ± 0.018,1.13 ± 0.045,2.08 ± 0.23,1.29 ± 0.057,1.39 ± 0.11,1.67 ± 0.47,2.32 ± 0.57,1.58 ± 0.051,1.61 ± 0.17
MSIDWNWGIFLQQAPFGNTTYLGWIWSGFQVTIALSICAWIIAFLVGSFFGILRTVPNRFLSGLGTLYVELFRNVPLIVQFFTWYLVIPELLPEKIGMWFKAELDPNIQFFLSSMLCLGLFTAARVCEQVRAAIQSLPRGQKNAALAMGLTLPQAYRYVLLPNAYRVIVPPMTSEMMNLVKNSAIASTIGLVDMAAQAGKLLDYSAHAWESFTAITLAYVLINAFIMLVMTLVERKVRLPGNMGGK [P0AER3],6.3 ± 0.68,5.73 ± 0.57,7.02 ± 1.3,6.414 ± 0.029,5.64 ± 0.34,12.4,5.35 ± 0.4,12.1 ± 4.6,6.73,12.4 ± 1.9,3.1 ± 0.078,5.71 ± 1.4
MSEQFLYFLQQMFNGVTLGSTYALIAIGYTMVYGIIGMINFAHGEVYMIGSYVSFMIIAALMMMGIDTGWLLVAAGFVGAIVIASAYGWSIERVAYRPVRNSKRLIALISAIGMSIFLQNYVSLTEGSRDVALPSLFNGQWVVGHSENFSASITTMQAVIWIVTFLAMLALTIFIRYSRMGRACRACAEDLKMASLLGINTDRVIALTFVIGAAMAAVAGVLLGQFYGVINPYIGFMAGMKAFTAAVLGGIGSIPGAMIGGLILGIAEALSSAYLSTEYKDVVSFALLILVLLVMPTGILGRPEVEKV [P0AEX7],6.2,–,> 8,–,6.44 ± 0.19,–,> 8,–,–,> 16,2.75 ± 0.53,–
MYLYIETLKQRLDAINQLRVDRALAAMGPAFQQVYSLLPTLLHYHHPLMPGYLDGNVPKGICLYTPDETQRHYLNELELYRGMSVQDPPKGELPITGVYTMGSTSSVGQSCSSDLDIWVCHQSWLDSEERQLLQRKCSLLENWAASLGVEVSFFLIDENRFRHNESGSLGGEDCGSTQHILLLDEFYRTAVRLAGKRILWNMVPCDEEEHYDDYVMTLYAQGVLTPNEWLDLGGLSSLSAEEYFGASLWQLYKSIDSPYKAVLKTLLLEAYSWEYPNPRLLAKDIKQRLHDGEIVSFGLDPYCMMLERVTEYLTAIEDFTRLDLVRRCFYLKVCEKLSRERACVGWRRAVLSQLVSEWGWDEARLAMLDNRANWKIDQVREAHNELLDAMMQSYRNLIRFARRNNLSVSASPQDIGVLTRKLYAAFEALPGKVTLVNPQISPDLSEPNLTFIYVPPGRANRSGWYLYNRAPNIESIISHQPLEYNRYLNKLVAWAWFNGLLTSRTRLYIKGNGIVDLPKLQEMVADVSHHFPLRLPAPTPKALYSPCEIRHLAIIVNLEYDPTAAFRNQVVHFDFRKLDVFSFGENQNCLVGSVDLLYRNSWNEVRTLHFNGEQSMIEALKTILGKMHQDAAPPDSVEVFCYSQHLRGLIRTRVQQLVSECIELRLSSTRQETGRFKALRVSGQTWGLFFERLNVSVQKLENAIEFYGAISHNKLHGLSVQVETNHVKLPAVVDGFASEGIIQFFFEETQDENGFNIYILDESNRVEVYHHCEGSKEELVRDVSRFYSSSHDRFTYGSSFINFNLPQFYQIVKVDGREQVIPFRTKSIGNMPPANQDHDTPLLQQYFS,4.23 ± 0.18,3.635 ± 0.028,1.14 ± 0.25,1.04 ± 0.087,1.36 ± 0.081,1.66 ± 0.22,1.27 ± 0.07,1.72 ± 0.053,2.155 ± 0.0068,3.73 ± 0.4,0.845 ± 0.015,1.19
MHFRAITRIVGLLVILFSGTMIIPGLVALIYRDGAGRAFTQTFFVALAIGSMLWWPNRKEKGELKSREGFLIVVLFWTVLGSVGALPFIFSESPNLTITDAFFESFSGLTTTGATTLVGLDSLPHAILFYRQMLQWFGGMGIIVLAVAILPILGVGGMQLYRAEMPGPLKDNKMRPRIAETAKTLWLIYVLLTVACALALWFAGMDAFDAIGHSFATIAIGGFSTHDASIGYFDSPTINTIIAIFLLISGCNYGLHFSLLSGRSLKVYWRDPEFRMFIGVQFTLVVICTLVLWFHNVYSSALMTINQAFFQVVSMATTAGFTTDSIARWPLFLPVLLLCSAFIGGCAGSTGGGLKVIRILLLFKQGNRELKRLVHPNAVYSIKLGNRALPERILEAVWGFFSAYALVFIVSMLAIIATGVDDFSAFASVVATLNNLGPGLGVVADNFTSMNPVAKWILIANMLFGRLEVFTLLVLFTPTFWRE [P0AFZ7],7.11,6.5,6.15 ± 0.27,5.5 ± 1.2,–,12.8 ± 1.7,6.77 ± 0.85,12.3 ± 0.14,5.4,11.4 ± 0.63,3.51 ± 0.23,6.13 ± 0.096
MTTHDRVRLQLQALEALLREHQHWRNDEPQPHQFNSTQPFFMDTMEPLEWLQWVLIPRMHDLLDNKQPLPGAFAVAPYYEMALATDHPQRALILAELEKLDALFADDAS,5.66 ± 0.27,–,–,–,3.91,11.8 ± 5.3,3.394 ± 0.03,6.93,3.49 ± 1.9,7.56 ± 1.8,2.09,4.97 ± 0.19
